# Experimental data: paper PMC4159350, “Structure of the N-Terminal Gyrase B Fragment in Complex with ADP⋅Pi Reveals Rigid-Body Motion Induced by ATP Hydrolysis” (PLoS ONE, 2014)
# B1: 43 kDa N-terminal fragment of GyrB from E. coli (GyrB43) (domain or fragment)
# chain: not shown
# notes: DNA gyrase subunit B (GyrB), E. coli, residues 1-392, comprising the ATPase domain (20-220) and the transducer domain (221-392); amplified from E. coli genomic DNA; By the forward primer the His6 codons follow the start ATG and are followed by the codons of S2, N3, S4, Y5; No removal of the tag is described; The dimer is formed by a crystallographic two-fold axis (one monomer per asymmetric …)
# Biological target: the molecule itself
# Experiment: crystal structure; GyrB43 incubated with a 15 fold molar excess of ATP and MgCl2 (hydrolysed to ADP.Pi), 50 mM Na-phosphate buffer; sitting drop, 20°C, 0.1 M tri-ammonium citrate pH 6.5, 25% PEG 2000; space group C2221, 1.8 Å; dimer by the crystallographic dyad
protein,measurement,value
B1,binding result,binds
